Data set [1] concerns the target T1, OML4-nLUC (rice; firefly, UniProt Q64M78 1-1001).
T1 construct: Co-expressed in N. benthamiana leaves; Order of the pieces follows the printed name; not shown: N-terminal fragment of firefly luciferase (nLUC)
T1 sequence: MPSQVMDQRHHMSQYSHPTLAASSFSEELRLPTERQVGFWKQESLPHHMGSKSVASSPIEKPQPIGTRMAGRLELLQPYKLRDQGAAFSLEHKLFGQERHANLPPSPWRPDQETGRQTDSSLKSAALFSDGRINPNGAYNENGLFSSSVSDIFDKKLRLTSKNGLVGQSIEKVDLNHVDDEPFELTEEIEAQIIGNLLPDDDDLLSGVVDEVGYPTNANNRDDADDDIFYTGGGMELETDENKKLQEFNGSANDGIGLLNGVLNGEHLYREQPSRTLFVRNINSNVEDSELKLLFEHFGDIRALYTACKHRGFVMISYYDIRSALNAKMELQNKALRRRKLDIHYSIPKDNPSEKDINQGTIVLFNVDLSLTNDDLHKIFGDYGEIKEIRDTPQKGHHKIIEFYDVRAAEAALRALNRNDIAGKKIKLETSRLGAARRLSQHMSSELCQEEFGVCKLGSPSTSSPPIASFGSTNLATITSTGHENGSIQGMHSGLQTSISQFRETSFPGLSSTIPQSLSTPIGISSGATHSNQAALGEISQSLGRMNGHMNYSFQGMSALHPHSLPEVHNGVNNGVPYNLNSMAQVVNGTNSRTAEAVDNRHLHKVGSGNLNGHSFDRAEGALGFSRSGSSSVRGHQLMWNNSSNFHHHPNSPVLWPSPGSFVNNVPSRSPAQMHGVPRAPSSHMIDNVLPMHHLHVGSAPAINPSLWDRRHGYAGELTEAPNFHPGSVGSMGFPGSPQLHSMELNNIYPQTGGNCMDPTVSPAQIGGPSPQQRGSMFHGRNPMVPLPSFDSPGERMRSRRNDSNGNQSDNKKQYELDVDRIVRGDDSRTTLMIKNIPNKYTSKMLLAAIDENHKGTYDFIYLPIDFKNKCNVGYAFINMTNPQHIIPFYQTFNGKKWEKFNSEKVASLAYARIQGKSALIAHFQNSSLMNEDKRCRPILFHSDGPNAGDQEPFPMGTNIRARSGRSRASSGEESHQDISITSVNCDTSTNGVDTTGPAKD
The data set is described as follows: firefly luciferase complementation imaging, co-expression in N. benthamiana leaves. As to the method: (§1) (A) OML4 interacts with GSK2 in yeast cells. Yeast cells were cultured on SD/-Trp-Leu or SD/-Trp-Leu-His-Ade media. (B) OML4 associates with GSK2 in N. benthamiana. OML4-nLUC and GSK2-cLUC were co-expressed in N. benthamiana leaves. Luciferase activity was observed 48 hours after infiltration. The range of luminescence intensity was scaled by the pseudocolor bar. (C) Bimolecular fluorescence complementation (BiFC) assays shown that OML4 interacts with GSK2 in N. benthamiana. OML4-cYFP was coexpressed with GSK2-nYFP in leaves of N. benthamiana. (D) OML4 binds GSK2 in vitro. GSK2-GST was incubated with OML4-MBP and pulled down by OML4-MBP and detected by immunoblot with anti-GST antibody. IB: immunoblot. (E) Interaction between OML4 and GSK2 in the Co-IP assays. Anti-MYC beads were used to immunoprecipitate GSK2-GFP proteins. Gel blots were probed with anti-MYC or anti-GFP antibody. Bars: 50 μm in C.
(§2) We next verified the interaction between OML4 and GSK2 in plant cells using the firefly luciferase (LUC) complementation imaging assay (FIG. 5B). The OML4-nLUC and GSK2-cLUC were transformed and co-expressed in N. benthamiana leaves. […] We then performed bimolecular fluorescence complementation (BiFC) assay to test the interaction between OML4 and GSK2 in plant cells (FIG. 5C). […]

Another data set deals with T2, OML4-Flag.
T2 chain: T1 sequence

Another data set deals with T3, cOML4-Flag.
T3 chain: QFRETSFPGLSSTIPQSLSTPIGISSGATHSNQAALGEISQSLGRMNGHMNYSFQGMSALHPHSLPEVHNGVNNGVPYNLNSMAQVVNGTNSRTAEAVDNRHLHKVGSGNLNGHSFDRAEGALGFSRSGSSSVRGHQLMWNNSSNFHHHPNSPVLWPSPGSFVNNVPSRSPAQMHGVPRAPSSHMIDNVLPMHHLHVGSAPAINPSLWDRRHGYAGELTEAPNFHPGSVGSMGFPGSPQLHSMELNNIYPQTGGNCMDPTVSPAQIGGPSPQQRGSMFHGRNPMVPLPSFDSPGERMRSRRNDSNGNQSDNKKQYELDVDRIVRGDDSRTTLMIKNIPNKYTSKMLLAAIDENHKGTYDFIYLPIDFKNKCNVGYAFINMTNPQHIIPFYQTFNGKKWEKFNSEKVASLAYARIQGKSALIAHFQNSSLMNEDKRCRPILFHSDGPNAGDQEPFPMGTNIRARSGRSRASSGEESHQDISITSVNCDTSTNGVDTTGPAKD

For another data set, the target named is T4, nOML4-Flag.
T4 chain: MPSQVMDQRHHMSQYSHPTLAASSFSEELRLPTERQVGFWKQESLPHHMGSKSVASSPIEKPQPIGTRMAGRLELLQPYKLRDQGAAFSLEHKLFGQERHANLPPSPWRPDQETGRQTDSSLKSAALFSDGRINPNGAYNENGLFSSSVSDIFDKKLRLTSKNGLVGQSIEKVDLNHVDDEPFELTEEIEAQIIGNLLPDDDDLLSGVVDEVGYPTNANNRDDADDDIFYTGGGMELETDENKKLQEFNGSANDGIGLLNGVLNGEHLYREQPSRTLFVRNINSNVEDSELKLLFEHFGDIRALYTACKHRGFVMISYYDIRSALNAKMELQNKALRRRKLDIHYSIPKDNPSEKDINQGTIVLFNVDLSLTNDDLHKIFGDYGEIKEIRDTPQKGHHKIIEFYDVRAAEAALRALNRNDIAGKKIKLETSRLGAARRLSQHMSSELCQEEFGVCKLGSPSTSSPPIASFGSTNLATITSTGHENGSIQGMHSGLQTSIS

In another data set the target is T5, recombinant OML4.
T5 chain: T1 sequence

Another data set has as its target T6, OML4-cYFP (rice, UniProt Q64M78 1-1001).
T6 construct: Transiently expressed in N. benthamiana leaves; Order of the pieces follows the printed name; also called OML4 fused with the C-terminus of the yellow fluorescent protein; not shown: C-terminus of the yellow fluorescent protein (cYFP, vector pGBW414-cYFP)
T6 sequence: T1 sequence
The data set is described as follows: bimolecular fluorescence complementation (BiFC), confocal microscopy. As for the experimental part: as §1, §2

For data set [2], the target named is T7, OML4 full-length protein, yeast two-hybrid bait (OML4 cDNA in pGBKT7) (rice, UniProt Q64M78 1-1001).
T7 construct: Expressed in yeast cells; also called Mei2-Like protein 4; LARGE1; not shown: fusion partner encoded by vector pGBKT7
T7 sequence: T1 sequence
The data set is described as follows: yeast two-hybrid, OML4 full-length protein as bait. The source says:
To further understand the molecular role of OML4 in grain growth control, we identified its interacting partners through a yeast two-hybrid (Y2H) assay. The OML4 full-length protein was used as the bait. Among several interacting proteins, six different clones corresponding to GSK2 were found in this screen. […] We further confirmed the interaction of OML4 with the full length GSK2 in yeast cells (FIG. 5A).
The cDNA sequences of GSK2 and OML4 were amplified using gene-specific primers (Table S4), and products were fused into the linearized pGADT7 and pGBKT7 vectors, respectively. Yeast two-hybrid analysis was conducted according to the manufacturer's instruction (Clontech, USA).

Data set [3] concerns the target T1, OML4-nLUC. The data set is described as follows: firefly luciferase complementation imaging in N. benthamiana leaves. As to the method: as §1, §2
The target in a further data set is T8, nLUC (firefly, UniProt P08659 1-416 = luciferase).
T8 construct: Control of the luciferase complementation imaging assay
Kind of data set: firefly luciferase complementation imaging, co-expression in N. benthamiana leaves. As to the method:
as §1, §2

T8 sequence (P08659 1-416): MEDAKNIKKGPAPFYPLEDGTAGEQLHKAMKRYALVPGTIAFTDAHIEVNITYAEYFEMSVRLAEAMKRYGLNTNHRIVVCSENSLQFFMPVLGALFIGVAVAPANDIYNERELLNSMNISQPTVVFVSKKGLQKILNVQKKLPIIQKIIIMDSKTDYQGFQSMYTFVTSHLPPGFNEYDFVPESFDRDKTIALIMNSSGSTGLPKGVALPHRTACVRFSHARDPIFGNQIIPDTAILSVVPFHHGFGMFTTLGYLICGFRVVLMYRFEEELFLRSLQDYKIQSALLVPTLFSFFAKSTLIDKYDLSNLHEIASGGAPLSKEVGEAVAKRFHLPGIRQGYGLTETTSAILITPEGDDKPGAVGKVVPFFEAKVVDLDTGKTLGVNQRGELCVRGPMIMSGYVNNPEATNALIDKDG

B1: cLUC (other, firefly, UniProt P08659 398-550, looked up)
chain: MSGYVNNPEATNALIDKDGWLHSGDIAYWDEDEHFFIVDRLKSLIKYKGYQVAPAELESILLQHPNIFDAGVAGLPDDDAGELPAAVVVLEHGKTMTEKEIVDYVASQVTTAKKLRGGVVFVDEVPKGLTGKLDARKIREILIKAKKGGKSKL
notes: Control of the luciferase complementation imaging assay
Take B1: in the data set with OML4-nLUC [1], the binding result was “no binding”.

B2: GSK2-GST (protein)
chain: MDQPAPAPEPMLLDAQPPAAVACDKKQQEGEAPYAEGNDAVTGHIISTTIGGKNGEPKRTISYMAERVVGTGSFGIVFQAKCLETGETVAIKKVLQDRRYKNRELQLMRAMDHPNVISLKHCFFSTTSRDELFLNLVMEYVPETLYRVLKHYSNANHRMPLIYVKLYMYQLFRGLAYIHTVPGVCHRDVKPQNVLVDPLTHQVKLCDFGSAKTLVPGEPNISYICSRYYRAPELIFGATEYTTSIDIWSAGCVLAELLLGQPLFPGESAVDQLVEIIKVLGTPTREEIRCMNPNYTEFRFPQIKAHPWHKVFHKRMPPEAIDLASRLLQYSPSLRCTALDACAHPFFDELREPNARLPNGRPFPPLFNFKHELANSSQELISRLIPEHVRRQATHNFFNTGS
Turning to B2, the “phosphorylation, in vitro kinase assay, phos-tag SDS-PAGE” value with OML4-Flag is “The phosphorylated OML4-Flag, nOML4-Flag and cOML4-Flag were detected in the presence of GSK2-GST, while the phosphorylated OML4-Flag, nOML4-Flag and cOML4-Flag were not found in the absence of GSK2-GST”; with cOML4-Flag, “The phosphorylated OML4-Flag, nOML4-Flag and cOML4-Flag were detected in the presence of GSK2-GST, while the phosphorylated OML4-Flag, nOML4-Flag and cOML4-Flag were not found in the absence of GSK2-GST”; in the data set with nOML4-Flag, “The phosphorylated OML4-Flag, nOML4-Flag and cOML4-Flag were detected in the presence of GSK2-GST, while the phosphorylated OML4-Flag, nOML4-Flag and cOML4-Flag were not found in the absence of GSK2-GST”. Moreover, the “phosphorylation level, phos-tag SDS-PAGE” value with OML4S105A, S607A-MBP is recorded as “Mutations of the two aforementioned Ser residues to Ala reduced the phosphorylation level of OML4, although OML4^S105A,S607A was still phosphorylated by GSK2”. Besides, the “phosphorylation, phos-tag SDS-PAGE” value in the data set with cOML4(S607A)-FLAG was “S(105) and S(607) partially influence the phosphorylation of OML4”; in the data set with nOML4(S105A)-FLAG it was “S(105) and S(607) partially influence the phosphorylation of OML4”.

B3: recombinant GSK2 (protein)
chain: B2 chain
Regarding B3, in the data set with recombinant OML4, the “phosphopeptides of OML4 found by LC-MS/MS after in vitro kinase reaction” value is “We identified 18 phosphopeptides of OML4, which correspond to 14 phosphosites” and the “phosphosites of OML4 found by LC-MS/MS after in vitro kinase reaction” value is “We identified 18 phosphopeptides of OML4, which correspond to 14 phosphosites”.

B4: GSK2-nYFP (enzyme)
chain: B2 chain
notes: Transiently expressed in N. benthamiana leaves; Order of the pieces follows the printed name; also called GSK2 fused with the N-terminus of the yellow fluorescent protein; not shown: N-terminus of the yellow fluorescent protein (nYFP, vector pGBW414-nYFP)
In the case of B4, the binding result in the data set with OML4-cYFP is given as “binds”.

B5: full length GSK2, yeast two-hybrid prey (GSK2 cDNA in pGADT7) (enzyme)
chain: B2 chain
notes: Expressed in yeast cells; The six GSK2 clones found in the first screen are not described further; also called glycogen synthase kinase 2; SHAGGY-like kinase; not shown: fusion partner encoded by vector pGADT7
Turning to B5, the binding result in [2] is “binds”.

B6: GSK2-cLUC (enzyme)
chain: B2 chain
notes: Co-expressed in N. benthamiana leaves; Order of the pieces follows the printed name; not shown: C-terminal fragment of firefly luciferase (cLUC)
On to B6, for which the figures for the binding result in the data set with OML4-nLUC [3] and with nLUC were “binds” and “no binding”, respectively.

(Values after patent US20230081195A1 (INSTITUTE OF GENETICS AND DEVELOPMENT BIOLOGY CHINESE …, published 2023).)
